The results in this text go back to article PMC11373591.

Assay [1] deals with HLA.A2-H12 / beta-2-microglobulin refolded with the 9V NY-ESO-1 peptide (A2/9V).
Assay [2] concerns the target CD8 binding–deficient HLA.A2 (DT227/228KA) refolded with the 9V NY-ESO-1 peptide (A2^ΔCD8/9V).
Assay [3] deals with HLA.A2-H12 / beta-2-microglobulin refolded with the 9V NY-ESO-1 peptide (A2/9V). The source holds these as a separate data set.

For 1G4 TCR, the EC50: antigen density on the SLB at half-maximum T cell activation (Fura-2 calcium response); receptor by CRISPR-Cas9 knock-in (antigen molecules per μm^2) in assay [1] is 0.00703; in assay [2], 0.0181. The specific lysis of HLA.A2-expressing K562 cells pulsed with 0.1 nM 9V peptide after 6, 8 and 24 hours of coculture at 1:1 (luciferase); 1G4 by CRISPR-Cas9 in assay [3] turned out to be 65 % killing.

c58c61 1G4hi TCR: the EC50: antigen density on the SLB at half-maximum T cell activation (Fura-2 calcium response); receptor by CRISPR-Cas9 knock-in (antigen molecules per μm^2) in assay [1] is 0.04; in assay [2], 0.0736.
